{
  "source": "FireProtDB (doi:10.1021/bi961660c)",
  "proteins": {"B1": {"name": "Tryptophan synthase alpha chain wild type, P0A877 (protein)", "chain": "MERYESLFAQLKERKEGAFVPFVTLGDPGIEQSLKIIDTLIEAGADALELGIPFSDPLADGPTIQNATLRAFAAGVTPAQCFEMLALIRQKHPTIPIGLLMYANLVFNKGIDEFYAQCEKVGVDSVLVADVPVEESAPFRQAALRHNVAPIFICPPNADDDLLRQIASYGRGYTYLLSRAGVTGAENRAALPLNHLVAKLKEYNAAPPLQGFGISAPDQVKAAIDAGAAGAISGSAIVKIIEQHINEPEKMLAALKVFVQPMKAATRS"}},
  "conditions": "Escherichia coli (strain K12), pH 7, 25 °C, GdnHCl, CD, Tris-HCl 20 mM, reversible: yes, whole UniProt chain shown",
  "note": "Several values for one entry are separate records, joined by “and”; a condition that tells them apart may be missing. Equal entries are not always repeated.",
  "data": [
    {"protein": "B1", "values": [
      {"measurement": "unfolding free energy", "value": 8.21, "unit": "kcal/mol"},
      {"measurement": "unfolding free energy", "setting": "transition: 3", "value": "4.23 kcal/mol and 4 kcal/mol"}
    ]}
  ]
}
